Results on 94 variants are retold here after the supplement of paper PMC10567573.

First the molecules themselves.
B1: PTPN9 (parent)
chain: NKWTVQYNVSPLSWNVAVKFLMAR
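Further: lentivirally expressed fusions sorted by FACS into six bins by GFP to DsRed ratio, PSI derived from sequencing read proportions per bin multiplied by bin number.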

The variants in the data set derive from B1. Nature of the data set: protein stability index of a GFP-peptide fusion (GPS, HEK-293T) (PSI 1-6); higher = more stable. The settings on record: c terminus: a fixed tail appended.
With NKWTVQYNVSPLSWNVACKFLMAR, the protein stability index turned out to be 2.73.

NKWTVQYNVSPLSWNVARKFLMAR: the protein stability index was found to be 2.08.

Turning to NKWTVQYNVSPLSWNVANKFLMAR, the protein stability index is 2.21. Turning to NKWTVQYNVSPLSWNVADKFLMAR, the protein stability index stood at 2.03. With NKWTVQYNVSPLSWNVAFKFLMAR the figure was 2.44. As for NKWTVQYNVSPLSWNVAGKFLMAR, the protein stability index amounted to 1.8. Then NKWTVQYNVSPLSWNVAVRFLMAR, with 2.64; and NKWTVQYNVSPLSWNVAVYFLMAR, with 3.14; and NKWTVQYNVSPLSWNVAVCFLMAR, with 2.41.

On to NKWTVQYNVSPLSWNVAVAFLMAR, for which the protein stability index was found to be 1.74. Then NKWTVQYNVSPLSWNVAVFFLMAR, with 1.89; and NKWTVQYNVSPLSWNVAVMFLMAR, with 2.06. Then NKWTVQYNVSPLSWNVAVEFLMAR, with 3.72. On to NKWTVQYNVSPLSWNVAVNFLMAR, for which the protein stability index turned out to be 1.63. On to NKWTVQYNVSPLSWNVAVQFLMAR, for which the protein stability index was 3.01. Consider NKWTVQYNVSPLSWNVAVHFLMAR, for which the protein stability index came out at 3.44. For the variant NKWTVQYNVSPLSWNVAVTFLMAR, the protein stability index turned out to be 2.69. With NKWTVQYNVSPLSWNVAVLFLMAR the figure was 3.29; with NKWTVQYNVSPLSWNVAVPFLMAR, 1.28; with NKWTVQYNVSPLSWNVAVDFLMAR, 3.33. Then NKWTVQYNVSPLSWNVAVKDLMAR, with 1.97; and NKWTVQYNVSPLSWNVAVKTLMAR, with 2.1.

On to NKWTVQYNVSPLSWNVAVKNLMAR, for which the protein stability index was 2.25. In the case of NKWTVQYNVSPLSWNVAVKALMAR, the protein stability index came to 3.35.

For the variant NKWTVQYNVSPLSWNVAVKPLMAR, the protein stability index was 1.68. Then NKWTVQYNVSPLSWNVAVKELMAR, with 2.68; and NKWTVQYNVSPLSWNVAVKRLMAR, with 3.62; and NKWTVQYNVSPLSWNVAVKCLMAR, with 1.68.

In the case of NKWTVQYNVSPLSWNVAVKILMAR, the protein stability index came to 2.27.

As to NKWTVQYNVSPLSWNVAVKKLMAR, the protein stability index worked out at 1.4. Regarding NKWTVQYNVSPLSWNVAVKYLMAR, the protein stability index is 2.94. On to NKWTVQYNVSPLSWNVAVKSLMAR, for which the protein stability index worked out at 2.3. Regarding NKWTVQYNVSPLSWNVAVKGLMAR, the protein stability index came to 2.97.

Consider NKWTVQYNVSPLSWNVAVKHLMAR, for which the protein stability index came to 1.67.

With NKWTVQYNVSPLSWNVAVKQLMAR, the protein stability index is 2.38. With NKWTVQYNVSPLSWNVAVKWLMAR the figure was 3.8; with NKWTVQYNVSPLSWNVAVKFSMAR, 3.66; with NKWTVQYNVSPLSWNVAVKFDMAR, 2.03.

With NKWTVQYNVSPLSWNVAVKFHMAR, the protein stability index was 2.98. With NKWTVQYNVSPLSWNVAVKFKMAR the figure was 2.5. With NKWTVQYNVSPLSWNVAVKFTMAR the figure was 2.9; with NKWTVQYNVSPLSWNVAVKFGMAR, 1.73. Then NKWTVQYNVSPLSWNVAVKFVMAR, with 3.01; and NKWTVQYNVSPLSWNVAVKFAMAR, with 3.37.

Turning to NKWTVQYNVSPLSWNVAVKFYMAR, the protein stability index is 2.89. With NKWTVQYNVSPLSWNVAVKFNMAR the figure was 1.72. With NKWTVQYNVSPLSWNVAVKFRMAR the figure was 3.22; with NKWTVQYNVSPLSWNVAVKFIMAR, 3.32. For the variant NKWTVQYNVSPLSWNVAVKFMMAR, the protein stability index was determined as 2.35. Take NKWTVQYNVSPLSWNVAVKFPMAR: the protein stability index amounted to 1.26.

For NKWTVQYNVSPLSWNVAVKFWMAR, the protein stability index came to 1.63. Take NKWTVQYNVSPLSWNVAVKFEMAR: the protein stability index was 1.9.

With NKWTVQYNVSPLSWNVAVKFLCAR, the protein stability index was 2.06. Then NKWTVQYNVSPLSWNVAVKFLIAR, with 2.72.

For NKWTVQYNVSPLSWNVAVKFLFAR, the protein stability index was 3.6.

Take NKWTVQYNVSPLSWNVAVKFLPAR: the protein stability index was found to be 2.29.

With NKWTVQYNVSPLSWNVAVKFLTAR, the protein stability index came out at 2.09. With NKWTVQYNVSPLSWNVAVKFLKAR the figure was 2.73; with NKWTVQYNVSPLSWNVAVKFLEAR, 1.73. With NKWTVQYNVSPLSWNVAVKFLHAR the figure was 2.36. As to NKWTVQYNVSPLSWNVAVKFLNAR, the protein stability index worked out at 2.06. With NKWTVQYNVSPLSWNVAVKFLGAR the figure was 1.83; with NKWTVQYNVSPLSWNVAVKFLDAR, 2.27. With NKWTVQYNVSPLSWNVAVKFLYAR the figure was 3.05. On to NKWTVQYNVSPLSWNVAVKFLRAR, for which the protein stability index amounted to 1.88. NKWTVQYNVSPLSYNVAVKFLMAR: the protein stability index is 2.01. With NKWTVQYNVSPLSWNVKVKFLMAR the figure was 2.28. Then NKWTVQYNVSPLSWNVIVKFLMAR, with 3.65; and NKWTVQYNVSPLSWNVQVKFLMAR, with 3.33. With NKWTVQYNVSPLSWNVFVKFLMAR the figure was 1.58. Turning to NKWTVQYNVSPLSWNVRVKFLMAR, the protein stability index stood at 1.47. In the case of NKWTVQYNVSPLSWNVMVKFLMAR, the protein stability index is 2.92. Then NKWTVQYNVSPLSWNVHVKFLMAR, with 2.23; and NKWTVQYNVSPLSWNVDVKFLMAR, with 1.78; and NKWTVQYNVSPLSWNVPVKFLMAR, with 2.37. Then NKWTVQYNVSPLSWNVNVKFLMAR, with 1.22; and NKWTVQYNVSPLSWNVTVKFLMAR, with 2.28; and NKWTVQYNVSPLSWNVAVKFLMAH, with 2.82.

For the variant NKWTVQYNVSPLSWNVAVKFLMAK, the protein stability index was found to be 2.18. For the variant NKWTVQYNVSPLSWNVAVKFLMAD, the protein stability index worked out at 2.41.

Turning to NKWTVQYNVSPLSWNVAVKFLMAP, the protein stability index came out at 1.23.

As to NKWTVQYNVSPLSWNVAVKFLMAG, the protein stability index came to 2.72. For NKWTVQYNVSPLSWNVAVKFLMAL, the protein stability index was 1.53.

Take NKWTVQYNVSPLSWNVAVKFLMAW: the protein stability index came out at 3.09.

Consider NKWTVQYNVSPLSWNVAVKFLMAY, for which the protein stability index came to 2.66. Then NKWTVQYNVSPLSWNVAVKFLMAQ, with 2.94. For the variant NKWTVQYNVSPLSWNVAVKFLMAT, the protein stability index came to 2.27.

Consider NKWTVQYNVSPLSWNVAVKFLMAM, for which the protein stability index is 2.65. As to NKWTVQYNVSPLSWNVAVKFLMAF, the protein stability index is 1.41. With NKWTVQYNVSPLSWNVAVKFLMAV the figure was 2.97; with NKWTVQYNVSPLSWNVAVKFLMAS, 1.83. With NKWTVQYNVSPLSWNVAVKFLMAN, the protein stability index was 3.31. Consider NKWTVQYNVSPLSWNVAVKFLMAC, for which the protein stability index is 2.63. With NKWTVQYNVSPLSWNVAVKFLMAA the figure was 3.97.
